Test results published in paper PMC10448054.
pKd: −log10 of the molar value.

Molecular target: N-protein of the wild-type Cne PRP8 S0 split mini-intein with C1A, maltose-binding protein fused to N-intein (MI^A N) (Cryptococcus neoformans)
Assay: SPR; Biacore T100; N-proteins (WTNa, ENa) immobilised on a CM5 chip; C-terminal fusion proteins flowed at different concentrations in 10 mM HEPES, 150 mM NaCl, 1 mM EDTA, pH 7.4; KD = kd/ka

## C-protein of the wild-type Cne PRP8 S0 split mini-intein with N185A, C-intein fused to thioredoxin (I^A CT) (domain or fragment)
  Ka: 608000 M⁻¹
  pKd: 5.78
  koff: 0.0082 s⁻¹
  kon: 4990 M⁻¹ s⁻¹
